Experimental data published in publication doi:10.1101/845313.
pKd: −log10 of the molar value. Where two headings read alike, the source gives them in different places.

Assays:
[1] = target: SusF co-expressed with SidI (Legionella pneumophila (Philadelphia-1 Lp01)); assay: SEC
[2] = target: SusF, purified recombinant (untagged) (Legionella pneumophila (Philadelphia-1 Lp01)) (UniProt Q5ZSL2); assay: SPR
[3] = target: SusF, purified recombinant (untagged) (Legionella pneumophila (Philadelphia-1 Lp01)) (UniProt Q5ZSL2); assay: SPR; remark: listed apart in the source

Substance	stoichiometry N [1]	pKd [2]	koff,1 (two-state model, first step) [2] [s⁻¹]	koff,2 (two-state model, second step) [2] [s⁻¹]	kon,1 (two-state model, first step) [2] [M⁻¹ s⁻¹]	kon,2 (two-state model, second step) [2] [s⁻¹]	pKd [3]	koff [3] [s⁻¹]	kon [3] [M⁻¹ s⁻¹]
SidI co-expressed with SusF (natural protein)	1	–	–	–	–	–	–	–	–
His6-SidI (from UniProt Q5ZSL3 1-942) (natural protein)	–	8.51	0.00051	0.00045	27000	0.0023	9.05	0.00019	220000
